Values quoted from earlier work in publication PMC7226498.

Target: p53 OD (Homo sapiens) (UniProt P04637)

Chain of p53 OD (P04637 325-356): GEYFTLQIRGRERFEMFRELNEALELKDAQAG

For p53 OD (from UniProt P04637), the Kd is given as 1 nM.
